Here are results for one sequence from paper doi:10.1101/2021.11.02.466972.

The target of this series is T1, MBP-CahR (Pseudomonas putida KT2440) (UniProt Q88GQ3).
T1 sequence: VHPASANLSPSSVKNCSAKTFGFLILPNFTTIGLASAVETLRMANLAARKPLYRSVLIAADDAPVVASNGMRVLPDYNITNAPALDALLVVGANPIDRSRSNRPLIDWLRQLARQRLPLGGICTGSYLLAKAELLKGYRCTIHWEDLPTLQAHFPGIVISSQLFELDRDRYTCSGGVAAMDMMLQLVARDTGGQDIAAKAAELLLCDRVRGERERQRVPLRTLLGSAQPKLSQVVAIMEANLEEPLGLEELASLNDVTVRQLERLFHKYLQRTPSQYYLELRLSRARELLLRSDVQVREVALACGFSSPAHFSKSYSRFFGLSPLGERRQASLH
Kind of series: EMSA. Particulars: buffer, not given. In general terms: Mobility shift assays separate free from complexed probe on a gel.

Regarding “GTTTGTCCGAGACTTTGTGGCCGCCTGGCAGAAGGTCATGGAGCTGGACCGCTTTGATCTGAAATAGCGTTGCCTGGCGGGGGGGGCGCGCTCAGCGCCCCCTTGGCCAGTGGTTATCCCGCCAATTCCAGGTCGGATAGATACAAAAGTGTCCTCGTCGGTTCTGTTGCAATGCTTCTCAGGCGGCCGGCCTGAACAGCGTGCTCACAACGACAAGGAACCCCGACCATGCAAATGCCCAAGACC (double strand) [creA promoter probe]”, the binding entry is on record as “binds”.
